Data from PMC5339707, “ACCORD: an assessment tool to determine the orientation of homodimeric coiled-coils” (Scientific Reports, 2017).
“And” between values parts separate entries of the source, which are not always exact repeats. Equal entries are not always repeated. Where two headings read alike, the source gives them in different places.

B1: MBP-NDP52 (197-270) fusion protein (domain or fragment, H. sapiens, UniProt Q13137 197-270, looked up)
chain: KVKEQKDYWETELLQLKEQNQKMSSENEKMGIRVDQLQAQLSTQEKEMEKLVQGDQDKTEQLEQLKKENDHLFL
notes: Modified pMAL vector; source: E. coli BL21(DE3), purified (amylose resin, Q-FF, Superdex 200)
B2: His6-SspB-MDV1 (231-300) fusion protein (other, E. coli | S. cerevisiae, UniProt P0AFZ3 1-165, looked up)
chain: MDLSQLTPRRPYLLRAFYEWLLDNQLTPHLVVDVTLPGVQVPMEYARDGQIVLNIAPRAVGNLELANDEVRFNARFGGIPRQVSVPLAAVLAIYARENGAGTMFEPEAAYDEDTSIMNDEEASADNETVMSVIDGDKPDHDDDTHPDDEPPQPPRGGRPALRVVKQTLVNSLEFLNIQKNSTLSEIRDIEVEVENLRQKKEKLLGKIANIEQNQLLLEDNLKQIDDRLDFLEEYG
notes: Stringent starvation protein B (SspB), E. coli, full length, residues 1-165 (M1-K165), amplified from genomic DNA; Mitochondrial division protein 1 (MDV1), S. cerevisiae, coiled-coil domain, residues 231-300 (Q231-G300); Seen as a tetramer (main fraction) and a dimer (significant proportion); source: E. coli BL21(DE3), purified (HisTrap, Superdex 200); not shown: His6, N-terminal, kept
B3: His6-SspB-ROCK1 (535-709) fusion protein (other, E. coli | H. sapiens, UniProt P0AFZ3 1-165, looked up)
chain: MDLSQLTPRRPYLLRAFYEWLLDNQLTPHLVVDVTLPGVQVPMEYARDGQIVLNIAPRAVGNLELANDEVRFNARFGGIPRQVSVPLAAVLAIYARENGAGTMFEPEAAYDEDTSIMNDEEASADNETVMSVIDGDKPDHDDDTHPDDEPPQPPRGGRPALRVVKLANEKLSQLQKQLEEANDLLRTESDTAVRLRKSHTEMSKSISQLESLNRELQERNRILENSKSQTDKDYYQLQAILEAERRDRGHDSEMIGDLQARITSLQEEVKHLKHNLEKVEGERKEAQDMLNHSEKEKNNLEIDLNYKLKSLQQRLEQEVNEHKVTKARLTDKHQSIEEAK
notes: Stringent starvation protein B (SspB), E. coli, full length, residues 1-165 (M1-K165), amplified from genomic DNA; Rho-associated coiled-coil containing protein kinase 1 (ROCK1), human, coiled-coil domain, residues 535-709 (L535-K709); CCD ligated behind SspB in the His6-SspB vector (BamHI at the 5' end); vector holds TEV and thrombin cleavage sites; source: E. coli BL21(DE3), purified (HisTrap, …)
B4: His6-SspB-NDP52 (141-334) fusion protein (other, E. coli | H. sapiens, UniProt P0AFZ3 1-165, looked up)
chain: MDLSQLTPRRPYLLRAFYEWLLDNQLTPHLVVDVTLPGVQVPMEYARDGQIVLNIAPRAVGNLELANDEVRFNARFGGIPRQVSVPLAAVLAIYARENGAGTMFEPEAAYDEDTSIMNDEEASADNETVMSVIDGDKPDHDDDTHPDDEPPQPPRGGRPALRVVKEVEEIEQHNKELCKENQELKDSCISLQKQNSDMQAELQKKQEELETLQSINKKLELKVKEQKDYWETELLQLKEQNQKMSSENEKMGIRVDQLQAQLSTQEKEMEKLVQGDQDKTEQLEQLKKENDHLFLSLTEQRKDQKKLEQTVEQMKQNETTAMKKQQELMDENFDLSKRLSENEIICNALQRQKERLEGE
notes: Stringent starvation protein B (SspB), E. coli, full length, residues 1-165 (M1-K165), amplified from genomic DNA; source: E. coli BL21(DE3), purified (HisTrap, Superdex 200); not shown: His6, N-terminal, kept
B5: MBP-MDV1 (231-300) fusion protein (domain or fragment, S. cerevisiae, UniProt P47025 231-300, looked up)
chain: QTLVNSLEFLNIQKNSTLSEIRDIEVEVENLRQKKEKLLGKIANIEQNQLLLEDNLKQIDDRLDFLEEYG
notes: Mitochondrial division protein 1 (MDV1), S. cerevisiae, coiled-coil domain, residues 231-300; Modified pMAL vector; the whole chain is in PDB 5JST; source: E. coli BL21(DE3), purified (amylose resin, Q-FF, Superdex 200)
B6: His6-SspB-Ndel1 (8-99) fusion protein (other, E. coli | R. norvegicus, UniProt P0AFZ3 1-165, looked up)
chain: MDLSQLTPRRPYLLRAFYEWLLDNQLTPHLVVDVTLPGVQVPMEYARDGQIVLNIAPRAVGNLELANDEVRFNARFGGIPRQVSVPLAAVLAIYARENGAGTMFEPEAAYDEDTSIMNDEEASADNETVMSVIDGDKPDHDDDTHPDDEPPQPPRGGRPALRVVKDFSSLKEETAYWKELSLKYKQSFQEARDELVEFQEGSRELEAELEAQLVQAEQRNRDLQADNQRLKYEVEALKEKLEHQYAQSYKQVSVLED
notes: Stringent starvation protein B (SspB), E. coli, full length, residues 1-165 (M1-K165), amplified from genomic DNA; Major peak a dimer; source: E. coli BL21(DE3), purified (HisTrap, Superdex 200); not shown: His6, N-terminal, kept
B7: His6-SspB-TRIM25 (194-356) fusion protein (other, E. coli | H. sapiens, UniProt P0AFZ3 1-165, looked up)
chain: MDLSQLTPRRPYLLRAFYEWLLDNQLTPHLVVDVTLPGVQVPMEYARDGQIVLNIAPRAVGNLELANDEVRFNARFGGIPRQVSVPLAAVLAIYARENGAGTMFEPEAAYDEDTSIMNDEEASADNETVMSVIDGDKPDHDDDTHPDDEPPQPPRGGRPALRVVKASADLEATLRHKLTVMYSQINGASRALDDVRNRQQDVRMTANRKVEQLQQEYTEMKALLDASETTSTRKIKEEEKRVNSKFDTIYQILLKKKSEIQTLKEEIEQSLTKRDEFEFLEKASKLRGISTKPVYIPEVELNHKLIKGIHQSTIDLKNELKQCIGRLQ
notes: as for B4
B8: His6-SspB-Atg16 (58-130) fusion protein (other, E. coli | S. cerevisiae, UniProt P0AFZ3 1-165, looked up)
chain: MDLSQLTPRRPYLLRAFYEWLLDNQLTPHLVVDVTLPGVQVPMEYARDGQIVLNIAPRAVGNLELANDEVRFNARFGGIPRQVSVPLAAVLAIYARENGAGTMFEPEAAYDEDTSIMNDEEASADNETVMSVIDGDKPDHDDDTHPDDEPPQPPRGGRPALRVVKVSHDDALLNTLAILQKELKSKEQEIRRLKEVIALKNKNTERLNDELISGTIENNVLQQKLSDLKKEHSQLVAR
notes: Stringent starvation protein B (SspB), E. coli, full length, residues 1-165 (M1-K165), amplified from genomic DNA; Autophagy protein 16 (Atg16), S. cerevisiae, coiled-coil domain, residues 58-130 (V58-R130); source: E. coli BL21(DE3), purified (HisTrap, Superdex 200); not shown: His6, N-terminal, kept
B9: His6-SspB-APC (2-55) fusion protein (other, E. coli | H. sapiens, UniProt P0AFZ3 1-165, looked up)
chain: MDLSQLTPRRPYLLRAFYEWLLDNQLTPHLVVDVTLPGVQVPMEYARDGQIVLNIAPRAVGNLELANDEVRFNARFGGIPRQVSVPLAAVLAIYARENGAGTMFEPEAAYDEDTSIMNDEEASADNETVMSVIDGDKPDHDDDTHPDDEPPQPPRGGRPALRVVKAAASYDQLLKQVEALKMENSNLRQELEDNSNHLTKLETEASNMKEVLKQLQGSI
notes: Stringent starvation protein B (SspB), E. coli, full length, residues 1-165 (M1-K165), amplified from genomic DNA; Adenomatous polyposis coli protein (APC), human, coiled-coil domain, residues 2-55 (A2-I55); CCD ligated behind SspB in the His6-SspB vector (BamHI at the 5' end); vector holds TEV and thrombin cleavage sites; source: E. coli BL21(DE3), purified (HisTrap, Superdex 200); not shown: …
B10: His6-SspB-LRRFIP1 (162-249) fusion protein (other, E. coli | H. sapiens, UniProt P0AFZ3 1-165, looked up)
chain: MDLSQLTPRRPYLLRAFYEWLLDNQLTPHLVVDVTLPGVQVPMEYARDGQIVLNIAPRAVGNLELANDEVRFNARFGGIPRQVSVPLAAVLAIYARENGAGTMFEPEAAYDEDTSIMNDEEASADNETVMSVIDGDKPDHDDDTHPDDEPPQPPRGGRPALRVVKDSLAEVEEKYKKAMVSNAQLDNEKTNFMYQVDTLKDMLLELEEQLAESRRQYEEKNKEFEREKHAHSILQFQFAEVKEALKQREEMLE
notes: Stringent starvation protein B (SspB), E. coli, full length, residues 1-165 (M1-K165), amplified from genomic DNA; CCD ligated behind SspB in the His6-SspB vector (BamHI at the 5' end); vector holds TEV and thrombin cleavage sites; source: E. coli BL21(DE3), purified (HisTrap, Superdex 200); not shown: His6, N-terminal, kept
B11: His6-SspB-SCOC (78-159) fusion protein (other, E. coli | H. sapiens, UniProt P0AFZ3 1-165, looked up)
chain: MDLSQLTPRRPYLLRAFYEWLLDNQLTPHLVVDVTLPGVQVPMEYARDGQIVLNIAPRAVGNLELANDEVRFNARFGGIPRQVSVPLAAVLAIYARENGAGTMFEPEAAYDEDTSIMNDEEASADNETVMSVIDGDKPDHDDDTHPDDEPPQPPRGGRPALRVVKMMNADMDAVDAENQVELEEKTRLINQVLELQHTLEDLSARVDAVKEENLKLKSENQVLGQYIENLMSASSVFQTTDTKSKRK
notes: Stringent starvation protein B (SspB), E. coli, full length, residues 1-165 (M1-K165), amplified from genomic DNA; Short coiled-coil protein (SCOC), human, coiled-coil domain, residues 78-159 (M78-K159); CCD ligated behind SspB in the His6-SspB vector (BamHI at the 5' end); vector holds TEV and thrombin cleavage sites; source: E. coli BL21(DE3), purified (HisTrap, Superdex 200); not shown: His6, …
B12: His6-SspB-MYO10 (883-933) fusion protein (other, E. coli | human, UniProt P0AFZ3 1-165, looked up)
chain: MDLSQLTPRRPYLLRAFYEWLLDNQLTPHLVVDVTLPGVQVPMEYARDGQIVLNIAPRAVGNLELANDEVRFNARFGGIPRQVSVPLAAVLAIYARENGAGTMFEPEAAYDEDTSIMNDEEASADNETVMSVIDGDKPDHDDDTHPDDEPPQPPRGGRPALRVVKENKQVEEILRLEKEIEDLQRMKEQQELSLTEASLQKLQERRDQELRRLEEE
notes: Stringent starvation protein B (SspB), E. coli, full length, residues 1-165 (M1-K165), amplified from genomic DNA; also called human MYO10 CC; source: E. coli BL21(DE3), purified (HisTrap, Superdex 200)

Experiments:
[1] = molecular target: His6-SspB-TPM1 (1-98) fusion protein (E. coli | G. gallus) (UniProt P0AFZ3); assay: SEC-MALS; self-association of His6-SspB-CCD fusion proteins (ACCORD); Superdex 200 10/300 GL, 50 mM Tris pH 8.0, 0.5 mM TCEP, 200 mM NaCl; sample 3-5 mg/ml, 0.5 ml
[2] = molecular target: His6-SspB-Mfn1 (660-735) fusion protein (E. coli | M. musculus) (UniProt P0AFZ3); assay: as above
[3] = molecular target: the molecule itself; assay: SAXS; MBP fusion proteins in 50 mM Tris pH 8.0, 0.5 mM TCEP, 100 mM NaCl; MBP-NDP52 2.6 mg/ml, MBP-MDV1 9.8 mg/ml; ab initio molecular envelope
[4] = molecular target: the molecule itself; assay: SEC-MALS; self-association of His6-SspB-CCD fusion proteins (ACCORD); Superdex 200 10/300 GL, 50 mM Tris pH 8.0, 0.5 mM TCEP, 200 mM NaCl; sample 3-5 mg/ml, 0.5 ml
[5] = molecular target: the molecule itself; assay: crystal structure; MBP-MDV1 fusion protein, hanging drop, 295 K, 100 mM sodium acetate pH 4.5, 25% PEG 3350, 100 mM CaCl2, 1.3-1.7 M sodium formate; molecular replacement
[6] = molecular target: the molecule itself; assay: SEC-MALS; self-association of His6-SspB-CCD fusion proteins (ACCORD); Superdex 200 10/300 GL, 50 mM Tris pH 8.0, 0.5 mM TCEP, 200 mM NaCl; sample 3-5 mg/ml, 0.5 ml; remark: listed apart in the source

Molecule | stoichiometry N [4] | also measured
His6-SspB-TPM1 (1-98) fusion protein (from UniProt P0AFZ3 1-165; P04268 1-98) |  | stoichiometry N [1]: 2
His6-SspB-Mfn1 (660-735) fusion protein (from UniProt P0AFZ3 1-165; Q811U4 660-735) |  | stoichiometry N [2]: 4
B1 |  | binding result [3]: binds
B2 | 4 and 2 | 
B3 | 2 | 
B4 | 2 | 
B5 |  | binding result [5]: binds
B6 | 2 | 
B7 | 4 | 
B8 | 2 | 
B9 | 2 | 
B10 | 2 | 
B11 | 2 | 
B12 |  | stoichiometry N [6]: 2
